From publication PMC10631449 (Journal of medicinal chemistry, 2023)
Bridge positions count the residues as written; N and C are the ends. Square brackets hold non-standard residues; d marks the D form. Peptide text beside a SMILES is read from it. dPhe(4-I) = N[C@H](Cc1ccc(I)cc1)C(=O)O; 2Nal = N[C@@H](Cc1ccc2ccccc2c1)C(=O)O; hArg = N=C(N)NCCCC[C@H](N)C(=O)O; Cit = NC(=O)NCCC[C@H](N)C(=O)O; Nle = CCCC[C@H](N)C(=O)O; Orn = NCCC[C@H](N)C(=O)O; Dab = NCC[C@H](N)C(=O)O; Dap = NC[C@H](N)C(=O)O

Legend:
[1] = target: mMC3R (Mus musculus, UniProt P33033); assay: AlphaScreen cAMP agonist assay, HEK293 cells stably expressing mMC3R; format: cell-based
Sequence of mMC3R (P33033 whole entry): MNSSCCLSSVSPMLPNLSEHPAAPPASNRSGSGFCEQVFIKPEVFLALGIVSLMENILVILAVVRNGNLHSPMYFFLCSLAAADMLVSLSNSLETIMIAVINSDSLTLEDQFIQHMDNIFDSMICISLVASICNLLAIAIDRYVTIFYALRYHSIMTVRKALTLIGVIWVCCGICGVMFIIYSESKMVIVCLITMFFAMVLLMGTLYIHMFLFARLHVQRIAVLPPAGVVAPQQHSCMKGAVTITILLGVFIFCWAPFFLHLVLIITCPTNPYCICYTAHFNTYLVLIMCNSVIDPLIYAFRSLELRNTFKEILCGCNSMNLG

[2] = Body weight after intrathecal; format: in vivo; conditions: t = 0, 24 and 48 h; 10 or 15 nmol/mouse IT
[3] = target: mMC5R (Mus musculus, UniProt P41149); conditions: read-out: antagonist Ki mMC5R; cited from earlier work
Sequence of mMC5R (P41149 whole entry): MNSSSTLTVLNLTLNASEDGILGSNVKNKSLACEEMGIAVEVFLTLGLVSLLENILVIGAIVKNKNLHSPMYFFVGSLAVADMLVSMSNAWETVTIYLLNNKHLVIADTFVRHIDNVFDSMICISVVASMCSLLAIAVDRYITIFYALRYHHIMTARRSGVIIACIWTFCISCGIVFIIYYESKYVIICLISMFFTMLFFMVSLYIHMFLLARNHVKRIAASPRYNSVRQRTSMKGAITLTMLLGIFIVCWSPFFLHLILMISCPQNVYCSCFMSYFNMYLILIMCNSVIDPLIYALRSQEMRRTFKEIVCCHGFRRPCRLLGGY

[4] = tested on: MC1R; conditions: MC1R antagonist; cited from earlier work
[5] = target: mouse melanocortin 5 receptor (mouse) (UniProt P41149)
Sequence of mouse melanocortin 5 receptor (mouse) (P41149 whole entry): as above

[6] = target: mouse melanocortin 1 receptor (mouse) (UniProt Q01727)
Sequence of mouse melanocortin 1 receptor (mouse) (Q01727 whole entry): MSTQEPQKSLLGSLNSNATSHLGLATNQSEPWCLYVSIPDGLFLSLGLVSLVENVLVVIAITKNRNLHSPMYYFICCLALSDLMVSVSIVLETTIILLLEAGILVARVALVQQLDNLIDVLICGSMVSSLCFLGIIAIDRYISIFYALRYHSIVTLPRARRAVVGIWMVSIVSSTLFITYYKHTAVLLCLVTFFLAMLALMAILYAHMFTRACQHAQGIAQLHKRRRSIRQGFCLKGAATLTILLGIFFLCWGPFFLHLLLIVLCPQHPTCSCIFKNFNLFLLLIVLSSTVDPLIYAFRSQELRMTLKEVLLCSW

[7] = target: mouse melanocortin 3 receptor (mouse) (UniProt P33033)
Sequence of mouse melanocortin 3 receptor (mouse) (P33033 whole entry): as the sequence (P33033 whole entry) above

[8] = target: mouse melanocortin 4 receptor (mouse) (UniProt P56450)
Sequence of mouse melanocortin 4 receptor (mouse) (P56450 whole entry): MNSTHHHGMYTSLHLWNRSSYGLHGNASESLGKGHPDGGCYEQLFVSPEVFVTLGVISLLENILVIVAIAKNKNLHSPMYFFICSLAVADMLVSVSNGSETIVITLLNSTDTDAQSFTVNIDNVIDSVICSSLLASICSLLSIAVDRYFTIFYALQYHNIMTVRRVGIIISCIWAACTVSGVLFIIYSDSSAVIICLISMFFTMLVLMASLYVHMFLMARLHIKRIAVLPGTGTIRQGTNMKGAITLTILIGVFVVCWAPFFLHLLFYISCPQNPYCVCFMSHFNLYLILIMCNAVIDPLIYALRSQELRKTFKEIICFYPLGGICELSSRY

[9] = tested on: K5-noggin mice; conditions: administered intracutaneously; cited from earlier work
[10] = target: mMC1R (Mus musculus, UniProt Q01727); conditions: cited from earlier work
Sequence of mMC1R (Q01727 whole entry): as the sequence (Q01727 whole entry) above

[11] = target: hMC1R; conditions: read-out: antagonist Ki hMC1R; competitive antagonist; cited from earlier work

Molecule	agonist EC50, cAMP AlphaScreen on HEK293 cells expressing the receptor [5] [µM]	agonist EC50, cAMP AlphaScreen on HEK293 cells expressing the receptor [7] [µM]	agonist EC50, cAMP AlphaScreen on HEK293 cells expressing the receptor [8] [µM]	further results
CC(=O)N[C@H](Cc1ccc(I)cc1)C(=O)N[C@@H](CCCNC(=N)N)C(=O)N[C@@H](Cc1ccc2ccccc2c1)C(=O)N[C@@H](Cc1c[nH]cn1)C(N)=O [Peptide 12, Ac-DPhe(pI)-Arg-Nal(2’)-His-NH2] (Ac-[dPhe(4-I)]R[2Nal]H-NH2)	–	–	–	percent maximal stimulatory response (compared to NDP-MSH) observed at 100 μM, mMC3R [1]: 35% @ 100 μM
CC(=O)N[C@H](Cc1ccc(I)cc1)C(=O)N[C@@H](CCCNC(=N)N)C(=O)N[C@@H](Cc1ccc2ccccc2c1)C(=O)N[C@@H](CCCN)C(N)=O [Peptide 14, Ac-DPhe(pI)-Arg-Nal(2’)-Orn-NH2] (Ac-[dPhe(4-I)]R[2Nal][Orn]-NH2)	–	–	–	body weights compared to vehicle [2]: not statistically significantly different
Ac-Nle-c[Asp-(1-Me)His-DNal(2’)-Arg-DNal(2’)-Lys]-NH2	–	–	–	Ki [3]: 0.063 µM
Ac-[Nle]DW[dF][Nle]WK-NH2	–	–	–	pA2 in the frog skin assay [4]: 8.4
Ac-[dPhe(4-I)]H[2Nal]R-NH2	> 100	> 100	> 100	–
Ac-[dPhe(4-I)]R[2Nal]E-NH2	> 100	> 100	> 100	agonist EC50, cAMP AlphaScreen on HEK293 cells expressing the receptor [6]: > 100 µM
Ac-[dPhe(4-I)]R[2Nal]H-NH2	> 100	–	> 100	–
Ac-[dPhe(4-I)]R[2Nal]R-NH2	> 100	–	–	–
Ac-[dPhe(4-I)]R[2Nal][dK]-NH2	> 100	> 100	> 100	agonist EC50, cAMP AlphaScreen on HEK293 cells expressing the receptor [6]: > 100 µM
H-YERFFNAF[Dap]Y-NH2 (lactam 2-9)	–	–	–	coloration of K5-noggin mice [9]: restored wild-type coloration; pA2 mMC1R [10]: 5.92; Ki ([10]; read-out: antagonist Ki mMC1R): 1.2 µM
c[Gly-Cpg-DNal(2’)-Arg-Trp-Glu]-Val-Val-Gly-NH2	–	–	–	Ki [11]: 0.053 µM

Further lines, with some results ahead:

agonist EC50, cAMP AlphaScreen on HEK293 cells expressing the receptor [5] [µM]	agonist EC50, cAMP AlphaScreen on HEK293 cells expressing the receptor [7] [µM]	agonist EC50, cAMP AlphaScreen on HEK293 cells expressing the receptor [8] [µM]	Molecule	further results
> 100	> 100	> 100	Ac-[dPhe(4-I)]E[2Nal]R-NH2	agonist EC50, cAMP AlphaScreen on HEK293 cells expressing the receptor [6]: > 100 µM
> 100	> 100	> 100	Ac-[dPhe(4-I)]K[2Nal]R-NH2	–
> 100	> 100	> 100	Ac-[dPhe(4-I)]R[2Nal]K-NH2	–
> 100	> 100	> 100	Ac-[dPhe(4-I)]R[2Nal][Cit]-NH2	agonist EC50, cAMP AlphaScreen on HEK293 cells expressing the receptor [6]: > 100 µM
> 100	> 100	> 100	Ac-[dPhe(4-I)]R[2Nal][Dab]-NH2	–
> 100	> 100	> 100	Ac-[dPhe(4-I)]R[2Nal][Dap]-NH2	–
> 100	> 100	> 100	Ac-[dPhe(4-I)]R[2Nal][Orn]-NH2	–
> 100	> 100	> 100	Ac-[dPhe(4-I)]R[2Nal][dR]-NH2	agonist EC50, cAMP AlphaScreen on HEK293 cells expressing the receptor [6]: > 100 µM
> 100	> 100	> 100	Ac-[dPhe(4-I)]R[2Nal][hArg]-NH2	–
> 100	> 100	> 100	Ac-[dPhe(4-I)][Cit][2Nal]R-NH2	–
> 100	> 100	> 100	Ac-[dPhe(4-I)][dK][2Nal]R-NH2	agonist EC50, cAMP AlphaScreen on HEK293 cells expressing the receptor [6]: > 100 µM
